Measured values taken from the supplement of paper PMC10065799, “High-throughput profiling of sequence recognition by tyrosine kinases and SH2 domains using bacterial peptide display” (eLife, 2023).

target: FGFR1 (UniProt P11362); test: phosphorylation enrichment, bacterial display (enrichment ratio); higher = better substrate or ligand; peptides without Tyr show the background
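Also: 11-residue human phosphosite peptides and single-mutation variants displayed on the E. coli surface, counted by deep sequencing, each peptide's frequency after selection divided by its frequency in the unselected input library; frequency after pTyr selection over input frequency; kinase dosed for 20-30% of maximal phosphorylation in three min.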

Chain of FGFR1 (P11362 whole entry, looked up): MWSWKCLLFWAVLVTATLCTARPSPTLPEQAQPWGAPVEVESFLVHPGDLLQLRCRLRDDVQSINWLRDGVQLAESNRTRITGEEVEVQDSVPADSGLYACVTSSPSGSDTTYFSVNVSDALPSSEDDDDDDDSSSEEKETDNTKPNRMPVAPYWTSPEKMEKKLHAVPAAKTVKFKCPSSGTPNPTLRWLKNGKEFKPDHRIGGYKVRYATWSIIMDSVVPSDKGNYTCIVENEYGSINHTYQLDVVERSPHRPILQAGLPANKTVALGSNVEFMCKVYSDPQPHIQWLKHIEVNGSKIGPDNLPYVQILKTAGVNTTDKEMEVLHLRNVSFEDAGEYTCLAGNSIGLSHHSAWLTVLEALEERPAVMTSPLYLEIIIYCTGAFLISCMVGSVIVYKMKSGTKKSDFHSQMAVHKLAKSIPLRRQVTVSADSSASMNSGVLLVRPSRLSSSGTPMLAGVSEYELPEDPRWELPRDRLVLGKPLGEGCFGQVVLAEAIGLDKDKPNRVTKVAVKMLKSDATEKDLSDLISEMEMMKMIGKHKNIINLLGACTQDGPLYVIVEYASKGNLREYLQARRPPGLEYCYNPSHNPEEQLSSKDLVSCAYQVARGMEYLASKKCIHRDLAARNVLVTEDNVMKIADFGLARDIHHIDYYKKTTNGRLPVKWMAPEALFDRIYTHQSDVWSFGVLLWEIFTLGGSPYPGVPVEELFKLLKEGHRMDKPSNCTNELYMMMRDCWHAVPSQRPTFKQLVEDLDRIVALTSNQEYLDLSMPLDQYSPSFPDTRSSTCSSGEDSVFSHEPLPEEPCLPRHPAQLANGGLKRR

| Sequence | phosphorylation enrichment |
| --- | --- |
| LMIEEYLTKEL [BAG3_Y457] | 0.759 |
| LGPDGYSTVDQ [ARVCF_Y901_R906Q] | 1.04 |
| FGMSSYITRED [FNDC3B_Y180_T179S_YF] | 0.556 |
| GTATAYLCRVK [ALPL_Y117_G120R] | 0.471 |
| YEAMEYLESKQ [BTK_Y511_C506Y] | 1.15 |
| LGQGKYSEVFE [CSNK2A1_Y50_R47Q] | 0.51 |
| FAANFYKLLGN [ROR2_Y646_D644N_YF] | 0.425 |
| MSSLYYANTLF [HOXB7_Y6] | 6.15 |
| DDEVFYSPLSL [OTC_Y317_R320L] | 3.14 |
| YYYDLYGGEKF [PTPN11_Y66_D61Y] | 14.7 |
| DGPVNYEEFVQ [CALM2_Y139_Q136P] | 0.514 |
| IYLADCRIMEG [ALOX12B_Y318_Y318C] | 0.648 |
| RAWPPYTVAAD [ANKZF1_Y572_R569W] | 0.573 |

tested on: c-Abl (mouse); test: as above

| Sequence | phosphorylation enrichment |
| --- | --- |
| LMIEEYLTKEL [BAG3_Y457] | 1.42 |
| LGPDGYSTVDQ [ARVCF_Y901_R906Q] | 1.31 |
| FGMSSYITRED [FNDC3B_Y180_T179S_YF] | 0.579 |
| GTATAYLCRVK [ALPL_Y117_G120R] | 0.595 |
| YEAMEYLESKQ [BTK_Y511_C506Y] | 0.836 |
| LGQGKYSEVFE [CSNK2A1_Y50_R47Q] | 0.709 |
| FAANFYKLLGN [ROR2_Y646_D644N_YF] | 0.726 |
| MSSLYYANTLF [HOXB7_Y6] | 8.46 |
| DDEVFYSPLSL [OTC_Y317_R320L] | 2.96 |
| YYYDLYGGEKF [PTPN11_Y66_D61Y] | 0.964 |
| DGPVNYEEFVQ [CALM2_Y139_Q136P] | 0.748 |
| IYLADCRIMEG [ALOX12B_Y318_Y318C] | 0.869 |
| RAWPPYTVAAD [ANKZF1_Y572_R569W] | 0.737 |

tested on: AncSZ; test: as above

| Sequence | phosphorylation enrichment |
| --- | --- |
| LMIEEYLTKEL [BAG3_Y457] | 2.23 |
| LGPDGYSTVDQ [ARVCF_Y901_R906Q] | 1.63 |
| FGMSSYITRED [FNDC3B_Y180_T179S_YF] | 0.84 |
| GTATAYLCRVK [ALPL_Y117_G120R] | 0.678 |
| YEAMEYLESKQ [BTK_Y511_C506Y] | 1.84 |
| LGQGKYSEVFE [CSNK2A1_Y50_R47Q] | 1.05 |
| FAANFYKLLGN [ROR2_Y646_D644N_YF] | 0.898 |
| MSSLYYANTLF [HOXB7_Y6] | 1.32 |
| DDEVFYSPLSL [OTC_Y317_R320L] | 2 |
| YYYDLYGGEKF [PTPN11_Y66_D61Y] | 1.98 |
| DGPVNYEEFVQ [CALM2_Y139_Q136P] | 1.17 |
| IYLADCRIMEG [ALOX12B_Y318_Y318C] | 1.27 |
| RAWPPYTVAAD [ANKZF1_Y572_R569W] | 0.884 |

target: Hck (UniProt P08631); test: as above
Sequence (P08631 whole entry, looked up): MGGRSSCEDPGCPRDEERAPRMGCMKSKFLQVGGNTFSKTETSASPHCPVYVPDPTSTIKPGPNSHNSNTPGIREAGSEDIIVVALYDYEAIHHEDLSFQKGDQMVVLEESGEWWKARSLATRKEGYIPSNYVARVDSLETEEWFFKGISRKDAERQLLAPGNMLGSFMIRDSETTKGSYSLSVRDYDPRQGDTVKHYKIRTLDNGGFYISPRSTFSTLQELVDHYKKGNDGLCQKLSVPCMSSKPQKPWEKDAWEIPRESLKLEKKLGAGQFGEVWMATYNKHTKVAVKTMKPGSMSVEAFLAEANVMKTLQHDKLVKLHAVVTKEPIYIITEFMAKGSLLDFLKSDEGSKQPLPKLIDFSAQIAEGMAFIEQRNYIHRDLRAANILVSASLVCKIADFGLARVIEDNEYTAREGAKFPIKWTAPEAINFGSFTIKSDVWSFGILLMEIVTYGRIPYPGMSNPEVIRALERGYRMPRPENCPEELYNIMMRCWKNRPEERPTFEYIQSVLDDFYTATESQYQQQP

| Sequence | phosphorylation enrichment |
| --- | --- |
| LMIEEYLTKEL [BAG3_Y457] | 0.685 |
| LGPDGYSTVDQ [ARVCF_Y901_R906Q] | 0.9 |
| FGMSSYITRED [FNDC3B_Y180_T179S_YF] | 0.536 |
| GTATAYLCRVK [ALPL_Y117_G120R] | 0.389 |
| YEAMEYLESKQ [BTK_Y511_C506Y] | 0.805 |
| LGQGKYSEVFE [CSNK2A1_Y50_R47Q] | 0.477 |
| FAANFYKLLGN [ROR2_Y646_D644N_YF] | 0.464 |
| MSSLYYANTLF [HOXB7_Y6] | 5.94 |
| DDEVFYSPLSL [OTC_Y317_R320L] | 7.22 |
| YYYDLYGGEKF [PTPN11_Y66_D61Y] | 6.45 |
| DGPVNYEEFVQ [CALM2_Y139_Q136P] | 0.529 |
| IYLADCRIMEG [ALOX12B_Y318_Y318C] | 0.691 |
| RAWPPYTVAAD [ANKZF1_Y572_R569W] | 0.597 |
